Assay: soluble on expression in E. coli; label from the status in PepcDB or PDB records

Sequence	soluble on expression in E. coli
MPLKLTTYYQGSEIPDFPGTNTFHSKELFQIYEETPGYTPLLIMASEDGKPVARLLAAIRKSIRMFPPAFIKRCEIYGTGEYLTAEADKERIFGEMLEHLTTEALRNSFLIEFRNLENAMFGYKYFRSNRYFPVNWLRVRNSLHGIENAEQRFSPSRIRQIKKGLKNGAKVDEARTVEEIREFSNMLRHLYSSRIRKHFPNIIFFQHMDTRLIHSRQAKIFIVRYKDKIIGGSACIYSGNDAYLWFSGGMRKTYALQYPGILAVWKALQDAHQNGFRHMEFMDAGLPFKKHGYRDFVLRFGGKQSSTRRWFRFRWQWLNDLLIKIYV	not soluble
MLGDRCAPIKASGVLIGDSVLVTDVEQARSLYSCGYYGQPLDVEKPRGADFEGPLRLSLIESLYLAEKGVLEVAKPDGSSVGVEDLRTAVRGNPRFSMLYNIYRDLRERGFVVRSGLKFGSDFAVYRLGPGIDHAPFIVHAYSPEDNIDPVEIVRAGRLSHSVRKKFVFAVTRGGDVSYLMIDWFRP	soluble
MSETFSGFDTAPVARVQAAFEEIAHRSMHDLSFLHPTMPVHVSDFTLFEGQWTGTVITPWMLSALIFPGPDQIWPRRTVGEKLGLQLPYGTMTFTVGELEGVSQYLACSLMSPLSRSLSPEEGVRLADDCARMLLSLPVSNPDAPQTSRRALLFGRRSCENA	not soluble
MEKKYRKEPVEIPPEIAETAAGGKVPETDVTEQYPQMEEMNGTEAAGEMPQIGPMYPIPQVPAQPTEPAQQMGQMPCMQPIPQMVPVVCCPFLLQMHCPMMPMDYSSMSHPTYQTAPQAMPQTMQAVPQPATPAQYAPGPCGSPYYPQHSGSPCGYGSDMYDQNYNSSMYNPSMYNPMRPGYY	not soluble
MSLRTSYKIYCTYKNIHAWYDAIKCGIDAAVKELAEKGVTVDYEWYGPAQPDAVDQVNSIETAIGQGWDLIAVDVNQPELTGEAINNAVAKGIPVAVFGTSDVPNCDRAFFVGNTDPYGDGCALAKAVCEKMGGKGQIAILAGTIGALAHEERLRGFKDTIAKYPDIEIVDEQRDNDEVEKAISITESWLQAYPNLGGILCNNMSNPVGACQAVADAGKSGKIVIGGMDHDLRALNALKDGTLYVAQVQNCYDMGYKLIYNAIKTIDGEKVEESTAVGSTSVYAQDADKFINMLYGEANEGHHHHHH	soluble
MRNAHAVEAMRVPHPVRGTVSLVEWHMARARNHINVLEENMTLLMEQAHANESLFYRLLHLQSRLVAADSLDEMLVRFHRWARDLGLAGATLRLFPDRWRLGAPSRYTHLALNRQAFEPLRIQRLGQSQHYLGPLNGPELLVVLEHHHHHH	soluble
EIRVFETAPEGLKILKDSEVVINTTTKEVAKNNQFSVSDASGTYNMVNDVKVG	soluble
MPLSSPDRLAIAVDLGTTTLAASLLDMATGERLAVAGSLNPQREFGADVIARLDAACRSKEARHRMAELVRGAIGRLAGELLESVGRSPEHLVTIAVAGNPAMEHLLLDLPVDALAFPPYRPLFTAGKTVPAVGLGWDLPAEVFLFPLPGGFVGGDTVAFLHGVPGPRSPVPGPRLYLDMGTNGEIALAADGKLLATSAAAGPAFEGGNLSCGMAALPGAISGVTFDGERLLVSTVEGKPATGICGSGVLSAIALLLDQGAIDSTGRLLPPEEIPSSIGNRLTTMGDERAFVLHRDATRTVWLSQEDIRQVQLAKGAIRAGMEVLFDRAGIESGAVGSVVLTGSFGAVLDPHSLKSLGVFTENMVQTTSFVREGALRGVEHALLTSGGLAAVDHLAGTIRVIPLSGTPAFEKHFLQHINFPHTILEHHHHHH	soluble
MGSDKIHHHHHHMKYILVTGGVISGIGKGVIASSVGTILKSCGLHVTSIKIDPYINIDAGTFSPYEHGEVFVLDDGGEVDLDLGNYERFLDIRLTKDNNLTTGKIYQYVINKERKGDYLGKTVQVVPHITDAIQEWVMRQALIPVDEDGLEPQVCVIELGGTVGDIESMPFIEAFRQFQFKVKRENFCNIHVSLVPQPSSTGEQKTKPTQNSVRELRGLGLSPDLVVCRCSNPLDTSVKEKISMFCHVEPEQVICVHDVSSIYRVPLLLEEQGVVDYFLRRLDLPIERQSRKMLMKWKEMADRYDRLLETCSIALVGKYTKFSDSYASVIKALEHSALAINHKLEIKYIDSTDLEPSTLQEEPVRYHEAWQKLCSAHGVLVPGGFGVRGTEGKIQAIAWARKQKKPFLGVCLGMQLAVVEFSRNVLGWQDANSTEFDPKTSHPVVIDMPEHNPGQMGGTMRLGKRRTLFQTKNSVMRKLYGDTDYLEERHRHRFEVNPVLKKCLEEQGLKFVGQDVEGERMEIVELEDHPFFVGVQYHPEFLSRPIKPSPPYFGLLLASVGRLPHYLQKGCRLSPRDTYSDRSGSSSPDSEITELKFPSISQD	not soluble
MAHHHHHHMASVPFTEEDLHELYTWVDEIPISRQKRNIARDFADGCSVAEILKFFFPKLVDLHNYVPAMSHAKKLDNWNTLNAKVLRKLYFEVPPEEVEDIVAAVPGAIERFLRALRVKVAQIKARRDEMLRMGEIQAHVNAHHVDPSPSQPQPREGGHVRDGGASAATAHRGSGRPSSPAAPAGPVASSRGSSSAGPQAPPRQTQPQRQPTPPLVNEAASLTQALREKDYTIQELRETVAILSEKIVKLEELVRVKDEKLNQYRQKVGRVPA	soluble
MGHHHHHHSHTVCSLSSGKFGTLLSGSWDTTAKVWLNDKCMMTLQGHTAAVWAVKILPEQGLMLTGSADKTVKLWKAGRCERTFSGHEDCVRGLAILSETEFLSCANDASIRRWQITGECLEVYYGHTNYIYSISVFPNCRDFVTTAEDRSLRIWKHGECAQTIRLPAQSIWCCCVLDNGDIVVGASDGIIRVFTESEDRTASAEEIKAFEKELSHATIDSKTGDLGDINAEQLPGREHLNEPGTREGQTRLIRDGEKVEAYQWSVSEGRWIKIGDVVGS	not soluble
MSLGLKIEEARVIVCCPGRNFVTLKIITNEGIYGLGDATLNGRELSVVSYLEDHVIPCLIGRDPHQIEDIWQFLYRGAYWRRGPITMSAIAAVDTALWDIKAKAAGLPLYQMLGGKSRTGVMVYGHANGRDIEETVEEVGRYIEIGYQAVRAQCGIPGLPSTYGVSNDKMFYEPADADLPSENIWSTSRYLDHVPKLFEKLRQVHGWDVHLLHDVHHRLTPIEAARLGQSLEPMRLFWLEDIVPAENQEGFRIIRNHTTTPLAVGEVFNTIWDCKNLIEEQLFDYIRSTVVHAGGITHLRRIADLAGLYHVKTGCHGATDLSPVCMGAALNFDLWVPNFGIQEYMRHAEITNEVFPHHYNFSNGFLHPGESPGHGVDLDEKLAAKYPYQRAYLPVNRLEDGTMWNWEGHHHHHH	not soluble
MNLDLQKVLPAEAFETEQNEGDYIGKDGLLYCGVCRTKKQTRLPASDFTGGREIIVPCICKCKVEENKRKEEEEKKRQEMQRLERLKASSLMDAKLKAARLDGYQVDGDNQKIYNLAGNYVKRFDEMYEKRQGLLFWGTVGTGKSYTAACIANELLNQMIPVVMTSFVKILQNIQGNPDEEERIMAGLNAAKLLIIDDLGAERSTDYALEKVYNIIDSRYLSGKPLILTTNMTLKDMQESEDIRYRRIYDRIFEMCFPVRFAGRSWREKAASKRFDAMKNLMEE	not soluble
MSLNKLCMYLERPELYKQSEINFWDDEYISKQLLKAHLDTNFEGASRNFNFIEDSVNWIVTVANPANYPKLLDLGCGPGLYAEKFAQKGYKVTGIDFSKRSINYAQNRNKETNLNINYLFQSYLNMNYNEEFDLATLIYCDYGALSTENRRLLMEKIYDSLKPGGKLILDVFTINKYNNFEEIKYWEINEDGGFWSNEKYMCLQDNCKYNDYNTLEQTLVITEKDENVFYVWNHYFSKESFLLEVENIGFKSVEFFSNVKGEAYSDDSMTMGLVLQKEGHHHHHH	soluble
MTNISIPGNWQTCDVEAMDGDFDDNMLQFLGSFEEVLPEGVEVETKKGMKKKNKPKKVENTERPEEDAKCVEERRLAKKLRRKEQMAANRKQKKERLAKRKQKEAESSAKKSENATETTTEKPKEQKKRKGGENGDTGKPKKSKKEASKKTDISAWKQFYFLPNEVLEAIEQMGFSEPTEIQSAVLPAAVRDRQDVLGAAETGSGKTLAFGIPLVARLLESSDDSQETESTEVRGPRALIVAPTRELVIQIMKHINALISTTQLIATSIVGGLAQVKQERIISQQRPDIVVATPGRLWAMMQEAETGEFLAEWKDLKCLVVDETDRMVEEGYFAELTHILNKIHEESEKEKLQTLVFSATLTFAKAQDVAEEEKKKAKELSSQQKIQRLIKLTGLRENKHKVIDLTRQMGTAGCLVEARINCGNLLEKDTSLVYLLTRYPGRTIVFVNSIDAARRLYSVLKSVNIDPMILHAKMIQKQRLKNLEKFSESKNAVLLATDVAARGLDIQGIDHVIHYQVPKKVEIYIHRSGRTARASHRGLTVVLVDPPSRQFYMKLCKGLNRMQDLNVFPIDFEPLMNAIKKRVRLASEIDSLGFRCKKIKMSESWFEKAARAADLDYDETRHREMDGLNLEVDTMVQKSRQLQAQLRTELSLPLPRVDGSDSMKTKYITPEIVARLRSVGDNAIDVLNQKIDETKEWKRKSRKATREDEMNSMKKSLKSSQKNKERLAEKKKKEKAAKVTKLSETD	not soluble
MTQFDKQYNSIIKDIINNGISDEEFDVRTKWDSDGTPAHTLSVISKQMRFDNSEVPILTTKKVAWKTAIKELLWIWQLKSNDVNDLNMMGVHIWDQWKQEDGTIGHAYGFQLGKKNRSLNGEKVDQVDYLLHQLKNNPSSRRHITMLWNPDELDAMALTPCVYETQWYVKHGKLHLEVRARSNDMALGNPFNVFQYNVLQRMIAQVTGYELGEYIFNIGDCHVYTRHIDNLKIQMEREQFEAPELWINPEVKDFYDFTIDDFKLINYKHGDKLLFEVAV	soluble
MAKETVCVTGANGFIGSWIIRTLIEKGYTKIHASIYPGSDPTHLLQLPGSDSKIKIFEADLLDSDAISRAIDGCAGVFHVASPCTLDPPVDPEKELVEPAVKGTINVLEAAKRFNVRRVVITSSISALVPNPNWPEKVPVDESSWSDLDFCKSRQKWYPISKTLAEKAAWEFSEKHGTNIVTIHPSTCLGPLLQPNLNASCAVLLQLLQGSTETQEHHWLGVVHVKDVAKGHVMLFETPDASGRFLCTNGIYQFSEFAALVSKLFPEFAVHKFDKETQPGLTSCNDAAKRLIELGLVFTAVEDAVKETVQSLRDKGFL	soluble
MGSDKIHHHHHHMNTLTDILNRPRKLRPECLLIVGDSNMGKTTIIHEFARQYYTKTVSDADMDLLSVTKPVLPILAPAKANVKELYINILNHFFVPFRASDPEAKLRNQAVHLMRKYETKMLIIDEIHNCLTGSAKLLPEVMNTLKNLSNELSLNIVGVGTREAITILHTDPQYASRFDVVNLPKWELNQDFLRLLVSYVRLLPLKKQSNLASKEIATLIFEVSGGNLGDLNRLLVECAKEAILQGDEEITYDIVHKFKWLKPTEGLRNIRNINLSLS	not soluble
MAEIRVGTASWTDPTLLASGWYPPGVRNHPERRLRYYAQHFDTVEVDSTFYALPRLEVVRKWAERTPEGFLFHVKAYSAFTGHGLEASALPKDLQALLPQKEGHLSQREVPEEVVEEAWNRFFASLAPLREAGKLGYLHFGLPPWTEPKPRSFRYLERLAERTQGYLVAVEFRNPRWYTAWGFVKRELMRLGLAHVSVDAPPHPEAPPRVLEPTREVAVLRCHGRNAETWKGPHQKPYERFNWRYSEEELLDLAEATRTLAAQAERVFVIFNNNYGTQGVEAALGLKRLLGLGKPPWAEGPFS	soluble
